{
  "source": "paper PMC8812994",
  "molecular_target": "rMjShoc2 (recombinant MjShoc2) (Marsupenaeus japonicus)",
  "experiment": "ITC; MICROCAL PEAQ-ITC; rFlaA (2 mM) in the syringe, rMjShoc2 (0.2 mM) in the cell; 2 μl injections, 25°C; one set of sites model",
  "note": "pKd: −log10 of the molar value.",
  "data": [
    {"substance": "rFlaA (recombinant FlaA of the ITC assay) (from UniProt Q60246 1-379) (natural protein)", "values": [
      {"measurement": "pKd", "value": 5.00}
    ]}
  ]
}
